We go through 5 molecules from US6958321B2, “Isolation, characterization, cloning and use of a mushroom lectin” (The Regents of the University of Michigan, priority 2001, dated 2005).

For data set [1], the target named is T1, alpha-Galactosidase-digested alpha2-macroglobulin glycoprotein (from volunteer 4) (human, UniProt P01023 24-1474, terminal alpha-galactose removed with alpha-galactosidase).
T1 construct: mature; also called alpha-Galactosidase-digested glycoprotein from volunteer 4; treated fractions containing principally alpha2-macroglobulin
T1 sequence (looked up): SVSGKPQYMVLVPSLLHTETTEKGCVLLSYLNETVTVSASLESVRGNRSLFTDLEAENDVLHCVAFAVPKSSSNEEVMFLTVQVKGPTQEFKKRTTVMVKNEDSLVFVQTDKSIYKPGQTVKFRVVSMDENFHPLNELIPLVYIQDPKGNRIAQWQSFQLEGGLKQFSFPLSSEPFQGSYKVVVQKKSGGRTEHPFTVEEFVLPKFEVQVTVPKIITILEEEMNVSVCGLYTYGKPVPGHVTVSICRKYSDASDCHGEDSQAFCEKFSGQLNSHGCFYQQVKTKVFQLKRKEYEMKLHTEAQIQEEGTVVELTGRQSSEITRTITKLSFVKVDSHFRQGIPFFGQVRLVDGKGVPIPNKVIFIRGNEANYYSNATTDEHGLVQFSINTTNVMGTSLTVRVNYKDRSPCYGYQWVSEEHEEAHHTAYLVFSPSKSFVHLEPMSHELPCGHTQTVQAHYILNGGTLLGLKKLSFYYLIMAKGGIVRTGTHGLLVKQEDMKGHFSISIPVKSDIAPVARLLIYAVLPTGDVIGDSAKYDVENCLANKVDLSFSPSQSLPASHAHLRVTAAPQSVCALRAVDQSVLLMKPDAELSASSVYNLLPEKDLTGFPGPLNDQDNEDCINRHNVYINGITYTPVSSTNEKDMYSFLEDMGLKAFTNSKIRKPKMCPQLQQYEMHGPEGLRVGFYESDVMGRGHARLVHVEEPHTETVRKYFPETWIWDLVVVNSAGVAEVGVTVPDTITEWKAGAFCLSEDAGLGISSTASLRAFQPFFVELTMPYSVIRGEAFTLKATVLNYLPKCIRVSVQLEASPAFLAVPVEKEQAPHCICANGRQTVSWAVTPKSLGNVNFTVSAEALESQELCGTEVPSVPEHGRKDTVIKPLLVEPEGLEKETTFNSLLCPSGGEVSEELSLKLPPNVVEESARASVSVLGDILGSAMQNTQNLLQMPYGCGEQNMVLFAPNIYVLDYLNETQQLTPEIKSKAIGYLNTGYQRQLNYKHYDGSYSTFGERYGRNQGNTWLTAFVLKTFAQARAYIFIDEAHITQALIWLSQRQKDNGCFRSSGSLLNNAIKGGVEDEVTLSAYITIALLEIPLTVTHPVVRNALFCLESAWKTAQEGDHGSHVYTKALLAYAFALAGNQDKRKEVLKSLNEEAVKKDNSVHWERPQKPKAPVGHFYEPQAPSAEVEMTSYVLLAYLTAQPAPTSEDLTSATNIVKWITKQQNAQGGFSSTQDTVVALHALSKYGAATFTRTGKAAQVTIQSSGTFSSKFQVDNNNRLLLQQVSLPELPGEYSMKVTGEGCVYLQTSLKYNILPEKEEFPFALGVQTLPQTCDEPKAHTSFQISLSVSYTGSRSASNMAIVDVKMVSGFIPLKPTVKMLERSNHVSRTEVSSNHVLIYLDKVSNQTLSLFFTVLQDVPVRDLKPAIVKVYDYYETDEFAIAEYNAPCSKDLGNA
The data set is described as follows: agar gel diffusion, precipitin.

Data set [2] concerns the target T2, Asialofetuin (UniProt P12763 19-359, desialylated glycans with terminal Gal-beta-1,4-GlcNAc).
T2 sequence (looked up): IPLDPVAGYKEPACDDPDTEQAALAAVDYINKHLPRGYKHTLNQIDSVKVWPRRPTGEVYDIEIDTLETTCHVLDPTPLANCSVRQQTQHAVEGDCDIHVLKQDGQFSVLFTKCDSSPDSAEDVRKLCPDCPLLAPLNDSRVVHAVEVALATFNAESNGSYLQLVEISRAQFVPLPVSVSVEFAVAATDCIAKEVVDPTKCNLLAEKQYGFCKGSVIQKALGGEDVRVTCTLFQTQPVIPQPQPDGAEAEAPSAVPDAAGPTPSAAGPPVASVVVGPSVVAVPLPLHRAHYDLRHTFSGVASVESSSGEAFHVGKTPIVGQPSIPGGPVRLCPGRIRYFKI
The data set is described as follows: affinity chromatography on MOA-Sepharose 4B, PBS wash then elution with 20 mM 1,3-diaminopropane in 0.15 M NaCl, A280 of 1 ml fractions.

Data set [3] can be described thus: Solubility and activity of salt-free lyophilisates. It counts as physicochemical. The method, then: Purification of recombinant MOA and native intact MOA-Recombinant MOA was purified from the soluble fraction by absorption on a column of melibiose-Sepharose and elution by lactose. Further purification was carried out on an affinity column of Synsorb B. Except for the diaminopropane elution, all affinity purifications were carried out in PBS, pH 7.2, containing 1.25 mM EDTA. After purification, lectin solutions were dialyzed against distilled water and lyophilized. […] Intact native MOA was prepared with a purification procedure (Example 2) that utilized a protease inhibitor cocktail (product P8215, Sigma, St. Louis, Mo.) which was added at the level of 0.1 ml/100 ml extract buffer (instead of phenylmethylsulfonyl fluoride), all buffers lacked Ca^++ and contained 1.25 mM EDTA, and the initial extraction and ammonium sulfate fractionations were carried out under an atmosphere of argon.

In data set [4] the test system is Human B erythrocytes. The data set is described as follows: Agglutination of cells by Marasmius oreades lectin. It counts as cell-based. The method, then:
(§1) In some embodiments, blood group specificity of MOA is determined in hemagglutination assays (see Examples below). Briefly, formaldehyde-treated erythrocytes in V-well microtitre plates are used in a protocol as described in Mo et al. [J. Biol. Chem 275:10623 (2000)], herein incorporated by reference. […] Example 3, below, presents the data for agglutination activity against a variety of cell types. […] Biochemistry 22: 5290 (1983)].
(§2) Hemagglutination assays were carried out using formaldehyde-treated erythrocytes in V-well microtitre plates as described by Mo et al. [J. Biol. Chem 275:10623 (2000)], herein incorporated by reference. Titres were recorded as the greatest dilution of the lectin solution yielding visible agglutination. Agglutination of Ehrlich ascites tumor cells (grown in in vitro culture) was observed microscopically.
(§3) Hemagglutination activity was unchanged by extensive dialysis of the lectin and assay in metal-free buffer containing EDTA, indicating the absence of a divatent metal ion requirement. As noted in Example 2, subsequent assays and purifications routinely used metal-free buffers containing EDTA.

The subject of data set [5] is Cultured Ehrlich ascites tumor cells. The data set is described as follows: Agglutination of cells by Marasmius oreades lectin. The data set is classed as cell-based. The protocol: as §1, §2, §3
Data set [6] deals with Human O erythrocytes. The data set is described as follows: Agglutination of cells by Marasmius oreades lectin. It counts as cell-based. The conditions noted are these: human type O erythrocytes. The method, then: as §1, §2, §3
Data set [7] concerns Human A erythrocytes. The data set is described as follows: Agglutination of cells by Marasmius oreades lectin. The data set is classed as cell-based. The conditions noted are these: human type A erythrocytes. The protocol:
as §1, §2, §3

B1: Lotus lectin (other, UniProt P19664 1-240, looked up)
chain: VSFNYTEFKDDGSLILQGDAKIWTDGRLAMPTDPLVNNPKTTRSAGRALYATPVPIWDSATGNVASFVTSFNFLFVIRELKYTPTDGLVFFLAPVGTEIPSGSTGGFLGIFDGSNGFNQFVAVEFDSYHNIWDPKSLRSSHVGIDVNSIMSLKAVNWNRVSGSLEKATIIYDSQTNILSVVMTSQNGQITTIYGTIDLKTVLPEKVSVGFSATTGNPEREKHDIYSWSFTSTLKEPEEQA
B1: the binding result in data set [1] is recorded as “no binding”.

B2: Intact native Marasmius oreades agglutinin (MOA) prepared by the method of Example 2 (other)
chain: MSLRRGIYHIENAGVPSAIDLKDGSSSDGTPIVGWQFTPDTINWHQLWLAEPIPNVADTFTLCNLFSGTYMDLYNGSSEAGTAVNGWQGTAFTTNPHQLWTIKKSSDGTSYKIQNYGSKTFVDLVNGDSSDGAKIAGWTGTWDEGNPHQKWYFNRMSVSSAEAQAAIARNPHIHGTYRGYILDGEYLVLPNATFTQIWKDSGLPGSKWREQIYDCDDFAIAMKAAVGKWGADSWKANGFAIFCGVMLGVNKAGDAAHAYNFTLTKDHADIVFFEPQNGGYLNDIGYDSYMAFY
modifications: blocked N-terminus (possibly N-acetyl)
notes: also called native MOA; immobilized MOA
For the molecule B2, the binding result in data set [2] was “no binding”.

B3: Recombinant MOA: MOA expressed in E. coli from a pT7 vector and affinity purified (protein)
chain: B2 chain
With B3, the “solubility of salt-free lyophilisates” value in data set [3] (distilled water or buffer) is on record as “readily soluble”. In data set [3] (redissolved lyophilisates), the “agglutinating activity after lyophilisation” value was “retention of full agglutinating activity”.

B4: MOA: M. oreades lectin (agglutinin) with binding specificity for Galα1,3Gal; single polypeptide of approximately 33 kDa (protein)
chain: B2 chain
Take B4: the “hemagglutination activity” value is listed as “Strong” in data set [4], “very little activity” in data set [6] and “very little activity” in data set [7]. In addition, the “agglutination” value in data set [5] is reported as “readily agglutinated”.

B5: Ulex europaeus I lectin (other, UniProt P22972 1-243, looked up)
chain: SDDLSFKFKNFSQNGKDLSFQGDASVIETGVLQLNKVGNNLPDETGGIARYIAPIHIWNCNTGEVASFITSFSFFMETSANPKAATDGLTFFLAPPDSPLRRAGGYFGLFEDTKDNDSSYQTVAVEFDTIGSPVNFDDPGFPHIGIDVNRVKSINAERWNKRYGLNNVANVEIIYEASSKTLTASLTYPSDQTSISVTSIVDLKEILPEWVSVGFSGGTYIGRQATHEVLNWYFTSNLINTNS
notes: also called Ulex I
In the case of B5, the binding result in data set [1] is on record as “binds”.
